Assay results reported in the supplement of paper PMC10567573.

B1: PCMTD2 (parent)
chain: FFIRTSDSFDKFDFCEPSFVTGNC
B2: RPAIN (parent)
chain: ISEYEKSLQFDEKCLSIMLAEWEA

Variants of: B1
Test: protein stability index of a GFP-peptide fusion (GPS, HEK-293T) (PSI 1-6); higher = more stable
Details: c terminus: a fixed tail appended
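Also: lentivirally expressed fusions sorted by FACS into six bins by GFP to DsRed ratio, PSI derived from sequencing read proportions per bin multiplied by bin number.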

Protein stability index, by site and new letter:
R4: C 3.1, K 1.99, T 3.27, H 2.45, P 1.85, N 1.65, Y 2.93, Q 1.74, M 4.34, A 3.21, L 2.8, W 4.04, V 2.33, D 2.08, G 1.31, E 2.12, F 2.52, S 2.39, I 1.55
D7: L 2.31, Y 2.41, A 2.62, T 3.2, K 1.88, R 1.98, V 2.77, W 3.44, I 3.18, H 1.69, G 2.55, E 3.48, N 2.56, F 3.74, S 3.69, C 2.8
T5: D 2.37, E 2.14, W 2.53, M 2.69, R 1.82, L 2.48, V 3.03, H 2.39, K 2.38, Y 2.88, I 3.08, N 1.75, C 2.77, Q 1.78, S 3.67, A 3.25, P 3.1, G 1.92, F 2.61
S8: F 2.38, L 3.06, A 2.85, D 1.95, T 1.61, E 1.91, M 1.94, C 3.14, P 2.35, Q 3.03, W 4, Y 3.02, I 2.54, R 2.44, K 1.72, H 3.25, N 2.13, V 4.76
D10: H 2.83, E 2.27, G 2.61, A 2.7, C 3.08, F 3.53
S6: K 2.59, R 3.11, W 2.61, V 2.23, I 2.29, C 1.99, Y 2.48, A 2.04, N 3.26, T 3.34, E 1.99, Q 3.19, P 2.53, G 2.33, H 2.91, D 3.28, M 2.53, F 2.43
I3: Y 1.81, N 1.98, R 2.45, A 1.55, Q 1.96, S 1.8, T 2.1, V 2.18, G 2.18, L 1.73, P 1.9, F 2.17, D 2.56, E 2.04, C 1.81, K 2.07, M 1.98, W 2.9, H 2
F2: R 1.65, H 1.89, A 2.1, V 3.17, Q 2.06, I 2.55, W 3.73, L 3.25, T 1.76, D 2.71, N 2.35, M 1.81, Y 2.58, P 2.13, G 2.41, K 2.06, S 2.01, E 2.15, C 1.92
F1: T 1.8, P 2.6, I 1.81, S 2.31, R 2.42, N 2.4, K 2.4, Q 1.87, L 2.4, C 2.93, Y 2.39, D 2.41, A 1.82, W 2.04, M 2.32, E 1.97, G 2.28, V 2.15, H 2.19
F9: L 2.12, E 1.9, V 1.75, Q 1.92, A 1.95, G 2.53, N 2.18, K 2.16, Y 2.82, T 1.7, M 2.99, S 1.66, P 1.28, C 2.04, W 2.6, I 2.47, R 1.7, D 2.03, H 2.24

Variants of: B2
Test: as above
Details: c terminus: a fixed tail appended

Protein stability index of substitutions, site by site:
W22: F 2.79, H 3.98, G 1.72, S 2.11, N 4.3, R 3.37, D 3.88, M 1.78, V 1.52, P 3.93, Q 3.08, E 4.21, T 2.03, Y 1.69, A 2.18, L 2.15, K 4.47, C 1.5, I 1.68
I17: L 1.85, R 2.15, E 2.16, C 1.63, G 2.8, Y 1.2, K 2.08, Q 2, N 2.48, V 2.38, H 2.51, P 3.53, D 2.47, T 2.12, F 1.8, A 1.6, W 1.47, M 1.97, S 2.08
A20: S 1.88, H 1.64, R 1.25, Q 2.19, K 1.64, C 1.77, F 1.54, T 2.25, G 2.01, E 1.98, V 1.8, P 3.02, N 1.44, Y 2.08, D 1.91, M 2.49, L 1.4, I 1.48
A24: I 1.96, N 2.32, V 1.91, S 1.72, Y 1.25, E 1.87, C 1.99, L 1.59, G 2.11, Q 2.54, F 3.13, M 3.31, H 2.49, W 1.59, P 2.49, K 2.27, D 2.5, T 2, R 1.73
E21: Y 1.93, D 2.27, A 2.12, N 2.38, I 3.31, W 2.81, R 3.58, S 2.31, K 1.47, M 1.9, T 3.61, P 2.73, G 1.37
L19: M 2.12, Q 3.6, H 3.27, S 3.4, Y 2.88, R 2.39, T 3.18, E 4.02, K 3.58, D 4.34, P 4.37, C 2.79, F 3.03, V 2.64, A 2.59, I 2.77, N 3.73, G 3.04, W 2.5
M18: C 1.81, S 2.56, I 1.4, G 3.33, P 4.27, W 2.52, F 2.5, A 1.86, L 2.18, K 2.19, Q 2.75, Y 2.39, N 2.13, E 1.84, V 1.51, T 2.79, R 1.93, D 3.26, H 2.41
E23: N 2.14, R 1.85, V 3.22, C 1.87, S 2.66, I 2.4, Y 1.61, L 1.83, Q 2.06, K 2.53, D 1.62, A 3.07, H 2.59, P 1.65, F 2.53, T 1.76, G 4.39, M 2.36, W 2.83
S16: W 1.86, Y 2.83, E 1.96, G 2.34, H 2.56, M 1.49, L 2.1, I 2.84, P 2.85, V 1.88, R 2.62, N 1.37, F 2.09, K 2.17, Q 2.11, D 2.08, T 2.1
